Measurements taken from patent US20260250352A1.
Like-named read-outs stand apart in the source and are kept apart here.

Assays:
[1] = molecular target: recombinant human BAFF (human) (UniProt Q9Y275)
[2] = molecular target: recombinant human BAFF (human) (UniProt Q9Y275); remark: listed apart in the source
[3] = molecular target: recombinant mouse APRIL (mouse) (UniProt Q9D777)
[4] = molecular target: recombinant mouse BAFF (mouse) (UniProt Q9WU72)
[5] = molecular target: recombinant human BAFF (human) (UniProt Q9Y275); remark: listed apart in the source
[6] = molecular target: recombinant human APRIL (human) (UniProt O75888)
[7] = molecular target: APRIL + BAFF in combination (human); experiment: cell-based or functional assay
[8] = molecular target: single chain BAFF-APRIL-APRIL heterotrimer (BAA) (human) (UniProt Q9Y275); experiment: cell-based or functional assay
[9] = molecular target: recombinant mouse APRIL (mouse) (UniProt Q9D777); experiment: cell-based or functional assay
[10] = molecular target: recombinant human BAFF (human) (UniProt Q9Y275); experiment: cell-based or functional assay
[11] = molecular target: single chain BAFF homotrimer (BAFF-BAFF-BAFF) (human) (UniProt Q9Y275); experiment: cell-based or functional assay
[12] = molecular target: single chain APRIL-BAFF-BAFF heterotrimer (ABB) (human) (UniProt O75888); experiment: cell-based or functional assay
[13] = molecular target: recombinant mouse BAFF (mouse) (UniProt Q9WU72); experiment: cell-based or functional assay
[14] = molecular target: recombinant human APRIL (human) (UniProt O75888); experiment: cell-based or functional assay
[15] = molecular target: BAFF 60-mer (human) (UniProt Q9Y275); experiment: cell-based or functional assay
[16] = molecular target: recombinant human BAFF (human) (UniProt Q9Y275); experiment: cell-based or functional assay; remark: listed apart in the source
[17] = molecular target: recombinant human APRIL (human) (UniProt O75888); experiment: cell-based or functional assay; remark: listed apart in the source

27 TACI CRD2-Fc (Fc fusion), sequence (chain): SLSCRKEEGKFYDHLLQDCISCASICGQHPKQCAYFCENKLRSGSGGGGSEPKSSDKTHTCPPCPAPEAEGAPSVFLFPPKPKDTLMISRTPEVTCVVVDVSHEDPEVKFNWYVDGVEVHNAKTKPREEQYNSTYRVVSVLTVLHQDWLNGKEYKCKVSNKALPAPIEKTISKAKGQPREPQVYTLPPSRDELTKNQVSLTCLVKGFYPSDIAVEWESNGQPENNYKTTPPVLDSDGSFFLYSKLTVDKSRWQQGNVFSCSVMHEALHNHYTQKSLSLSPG
13 TACI CRD2-Fc (Fc fusion), sequence (chain): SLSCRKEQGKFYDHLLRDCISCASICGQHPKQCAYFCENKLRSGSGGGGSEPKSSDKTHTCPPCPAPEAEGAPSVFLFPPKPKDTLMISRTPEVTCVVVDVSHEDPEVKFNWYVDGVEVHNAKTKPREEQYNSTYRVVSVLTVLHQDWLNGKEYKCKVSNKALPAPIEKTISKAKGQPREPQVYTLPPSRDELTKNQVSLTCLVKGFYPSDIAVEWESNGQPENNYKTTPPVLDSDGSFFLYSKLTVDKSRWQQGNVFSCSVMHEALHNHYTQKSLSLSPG
29 TACI CRD2-Fc (Fc fusion), sequence (chain): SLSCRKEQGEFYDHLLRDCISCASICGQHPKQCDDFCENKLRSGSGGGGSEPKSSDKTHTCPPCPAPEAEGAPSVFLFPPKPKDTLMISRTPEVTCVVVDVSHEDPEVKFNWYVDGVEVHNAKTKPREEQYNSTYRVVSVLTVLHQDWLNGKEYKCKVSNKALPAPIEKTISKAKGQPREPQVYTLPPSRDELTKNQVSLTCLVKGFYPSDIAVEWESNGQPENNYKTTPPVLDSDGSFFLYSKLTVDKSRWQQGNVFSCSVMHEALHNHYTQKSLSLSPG
recombinant mouse BAFF (mouse), sequence (Q9WU72 127-309 limits assumed): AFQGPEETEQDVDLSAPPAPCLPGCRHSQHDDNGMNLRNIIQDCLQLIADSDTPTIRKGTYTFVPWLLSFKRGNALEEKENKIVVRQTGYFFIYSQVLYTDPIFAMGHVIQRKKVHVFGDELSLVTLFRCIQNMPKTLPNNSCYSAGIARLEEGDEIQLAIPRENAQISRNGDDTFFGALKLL
recombinant mouse APRIL (mouse), sequence (Q9D777 96-241 limits assumed): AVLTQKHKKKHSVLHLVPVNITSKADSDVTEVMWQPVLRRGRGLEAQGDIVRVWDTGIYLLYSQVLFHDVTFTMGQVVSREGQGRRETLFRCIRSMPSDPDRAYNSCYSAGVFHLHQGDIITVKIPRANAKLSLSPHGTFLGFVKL

| Substance | IC50, Jurkat/NF-kB/TACI reporter [16] | IC50 relative to WT TACI (68-110)-Fc (Δ WT) [16] | IC50, Jurkat/NF-kB/TACI reporter [17] | IC50 relative to WT TACI (68-110)-Fc (Δ WT) [17] | other results |
| --- | --- | --- | --- | --- | --- |
| 23 TACI CRD2-Fc (A101D) (Fc fusion) | 1.83 nM | 0.99 | 8.38 nM | 0.68 |  |
| 24 TACI CRD2-Fc (K77E, R84Q) (Fc fusion) | 2.26 nM | 1.22 | 4.26 nM | 0.35 |  |
| 25 TACI CRD2-Fc (K77E, A101D) (Fc fusion) | 1.96 nM | 1.06 | 2.04 nM | 0.17 |  |
| 29 TACI CRD2-Fc (Fc fusion) | 1.18 nM | 0.64 | 2.91 nM | 0.24 | IC50 relative to TACI 30-110-Fc [10]: 0.23; IC50, Jurkat/NF-kB/TACI reporter [14]: 339 nM; IC50 relative to TACI 30-110-Fc [14]: 0.09 |
| 30 TACI CRD2-Fc (R84Q) (Fc fusion) | 5.49 nM | 2.96 | 0.566 nM | 0.05 | IC50 (read off the curve), human BAFF, NF-κB luciferase reporter, Jurkat/TACI/NF-κB cells [5]: 1 nM |
| 177 TACI CRD2-Fc (Q75E) (Fc fusion) | 1.46 nM | 0.79 | 1.94 nM | 0.16 |  |
| 179 TACI CRD2-Fc (Q75E, F78Y) (Fc fusion) | 1.79 nM | 0.97 | 13.4 nM | 1.09 |  |
| 180 TACI CRD2-Fc (Q75E, A101D) (Fc fusion) | 2.36 nM | 1.27 | 20 nM | 1.62 |  |
| 181 TACI CRD2-Fc (Q75E, Y102D) (Fc fusion) | 2.15 nM | 1.16 | 11.1 nM | 0.9 |  |
| 182 TACI CRD2-Fc (K77E, F78Y, R84Q) (Fc fusion) | 2.21 nM | 1.19 | 10.1 nM | 0.82 |  |
| 184 TACI CRD2-Fc (F78Y, R84Q) (Fc fusion) | 2.26 nM | 1.22 | 2.62 nM | 0.21 |  |

Now from value to substance, other results behind:

| IC50, Jurkat/NF-kB/TACI reporter [16] | IC50 relative to WT TACI (68-110)-Fc (Δ WT) [16] | IC50, Jurkat/NF-kB/TACI reporter [17] | IC50 relative to WT TACI (68-110)-Fc (Δ WT) [17] | Substance | other results |
| --- | --- | --- | --- | --- | --- |
| 1.85 nM | 1 | 12.3 nM | 1 | 13 TACI CRD2-Fc (Fc fusion) | IC50 (read off the curve), human BAFF, NF-κB luciferase reporter, TACI/Jurkat/NF-κB cells [1]: 3 nM; IC50 (read off the curve), human BAFF, NF-κB luciferase reporter, Jurkat/NF-κB/TACI cells [2]: 4 nM; IC50 (read off the curve), mouse APRIL, NF-κB luciferase reporter, Jurkat/NF-κB/TACI cells [3]: 0.7 nM; IC50 (read off the curve), mouse BAFF, NF-κB luciferase reporter, Jurkat/NF-κB/TACI cells [4]: 5 nM; IC50 (read off the curve), human BAFF, NF-κB luciferase reporter, Jurkat/TACI/NF-κB cells [5]: 2 nM; IC50 (read off the curve), human APRIL, NF-κB luciferase reporter, Jurkat/TACI/NF-κB cells [6]: 5 nM; IC50, TACI/Jurkat/NF-kB reporter [7]: 12.9 nM; IC50, TACI/Jurkat/NF-kB reporter [8]: < 0.016 nM; IC50, TACI/Jurkat/NF-kB reporter [9]: 2.9 nM; IC50, Jurkat/NF-kB/TACI reporter [10]: 1330 nM; IC50, TACI/Jurkat/NF-kB reporter [10]: 3 nM; IC50 relative to TACI 30-110-Fc [10]: 0.23; IC50, TACI/Jurkat/NF-kB reporter [11]: 7.46 nM; IC50, TACI/Jurkat/NF-kB reporter [12]: 0.179 nM; IC50, TACI/Jurkat/NF-kB reporter [13]: 2.2 nM; IC50, Jurkat/NF-kB/TACI reporter [14]: 369 nM; IC50, TACI/Jurkat/NF-kB reporter [14]: 8.5 nM; IC50 relative to TACI 30-110-Fc [14]: 0.1; IC50, TACI/Jurkat/NF-kB reporter [15]: 18.7 nM |
| 1.46 nM | 0.79 | 11.8 nM | 0.96 | 27 TACI CRD2-Fc (Fc fusion) | IC50, Jurkat/NF-kB/TACI reporter [10]: 1390 nM; IC50 relative to TACI 30-110-Fc [10]: 0.24; IC50, Jurkat/NF-kB/TACI reporter [14]: 262 nM; IC50 relative to TACI 30-110-Fc [14]: 0.07 |
| 1.54 nM | 0.83 | 0.159 nM | 0.01 | 32 TACI CRD2-Fc (K77E) (Fc fusion) |  |
| 1.89 nM | 1.02 | 10.7 nM | 0.87 | 178 TACI CRD2-Fc (Q75E, K77E) (Fc fusion) |  |
| 1.64 nM | 0.88 | 0.176 nM | 0.01 | 183 TACI CRD2-Fc (F78Y) (Fc fusion) |  |
